The supplement of paper PMC9112550, “Optimization of the antimicrobial peptide Bac7 by deep mutational scanning” (BMC Biology, 2022)

System: Escherichia coli TOP10
Experiment: shrunken log2 fold change of peptide-encoding DNA abundance (4.5 h post-induction vs induction); higher = less antimicrobial activity (less host growth inhibition)
Settings: time post-induction: 4.5 h; library: site-saturation at positions 5, 18, 19, 20
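Note: peptides expressed intracellularly from a pBAD plasmid library in pooled LB shake-flask culture, induced with 0.3% L-arabinose, DNA abundance read by NGS, three biological replicates, DESeq2 with apeglm shrinkage.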

Sequence: RRIRARPPRLPRPRPRPHTQPRP
- shrunken log2 fold change: -0.0761

Sequence: RRIRARPPRLPRPRPRPHTYPRP
- shrunken log2 fold change: -0.126

Sequence: RRIRARPPRLPRPRPRPHVIPRP
- shrunken log2 fold change: 0.0726

Sequence: RRIRARPPRLPRPRPRPHWRPRP
- shrunken log2 fold change: 0.319

Sequence: RRIRARPPRLPRPRPRPIAHPRP
- shrunken log2 fold change: 0.13

Sequence: RRIRARPPRLPRPRPRPIAIPRP
- shrunken log2 fold change: 0.0259

Sequence: RRIRARPPRLPRPRPRPICCPRP
- shrunken log2 fold change: 0.316

Sequence: RRIRARPPRLPRPRPRPICYPRP
- shrunken log2 fold change: -0.0212

Sequence: RRIRARPPRLPRPRPRPIDRPRP
- shrunken log2 fold change: -0.027

Sequence: RRIRARPPRLPRPRPRPIEIPRP
- shrunken log2 fold change: 0.0613

Sequence: RRIRARPPRLPRPRPRPIENPRP
- shrunken log2 fold change: 0.203

Sequence: RRIRARPPRLPRPRPRPIEPPRP
- shrunken log2 fold change: 0.0525

Sequence: RRIRARPPRLPRPRPRPIERPRP
- shrunken log2 fold change: 0.047

Sequence: RRIRARPPRLPRPRPRPIGQPRP
- shrunken log2 fold change: 0.34

Sequence: RRIRARPPRLPRPRPRPIIDPRP
- shrunken log2 fold change: 0.216

Sequence: RRIRARPPRLPRPRPRPIITPRP
- shrunken log2 fold change: -0.298

Sequence: RRIRARPPRLPRPRPRPIKGPRP
- shrunken log2 fold change: 0.3

Sequence: RRIRARPPRLPRPRPRPIMVPRP
- shrunken log2 fold change: -0.146

Sequence: RRIRARPPRLPRPRPRPIPAPRP
- shrunken log2 fold change: 0.333

Sequence: RRIRARPPRLPRPRPRPIPNPRP
- shrunken log2 fold change: -0.069

Sequence: RRIRARPPRLPRPRPRPIRIPRP
- shrunken log2 fold change: 0.0541

Sequence: RRIRARPPRLPRPRPRPISLPRP
- shrunken log2 fold change: -0.0678

Sequence: RRIRARPPRLPRPRPRPITCPRP
- shrunken log2 fold change: -0.119

Sequence: RRIRARPPRLPRPRPRPITHPRP
- shrunken log2 fold change: -0.045

Sequence: RRIRARPPRLPRPRPRPIVHPRP
- shrunken log2 fold change: -0.311

Sequence: RRIRARPPRLPRPRPRPIVRPRP
- shrunken log2 fold change: -0.146

Sequence: RRIRARPPRLPRPRPRPIYEPRP
- shrunken log2 fold change: -0.352

Sequence: RRIRARPPRLPRPRPRPIYHPRP
- shrunken log2 fold change: -0.359

Sequence: RRIRARPPRLPRPRPRPKALPRP
- shrunken log2 fold change: 0.294

Sequence: RRIRARPPRLPRPRPRPKAWPRP
- shrunken log2 fold change: 0.146

Sequence: RRIRARPPRLPRPRPRPKCFPRP
- shrunken log2 fold change: -0.0172

Sequence: RRIRARPPRLPRPRPRPKCQPRP
- shrunken log2 fold change: 0.432

Sequence: RRIRARPPRLPRPRPRPKCTPRP
- shrunken log2 fold change: 0.316

Sequence: RRIRARPPRLPRPRPRPKDVPRP
- shrunken log2 fold change: 0.0479

Sequence: RRIRARPPRLPRPRPRPKFQPRP
- shrunken log2 fold change: 0.328

Sequence: RRIRARPPRLPRPRPRPKGMPRP
- shrunken log2 fold change: 0.4

Sequence: RRIRARPPRLPRPRPRPKIDPRP
- shrunken log2 fold change: 0.115

Sequence: RRIRARPPRLPRPRPRPKIQPRP
- shrunken log2 fold change: 0.26

Sequence: RRIRARPPRLPRPRPRPKKEPRP
- shrunken log2 fold change: 0.0428

Sequence: RRIRARPPRLPRPRPRPKKHPRP
- shrunken log2 fold change: 0.417

Sequence: RRIRARPPRLPRPRPRPKLIPRP
- shrunken log2 fold change: 0.128

Sequence: RRIRARPPRLPRPRPRPKLNPRP
- shrunken log2 fold change: 0.16

Sequence: RRIRARPPRLPRPRPRPKMKPRP
- shrunken log2 fold change: 0.131

Sequence: RRIRARPPRLPRPRPRPKMPPRP
- shrunken log2 fold change: 0.114

Sequence: RRIRARPPRLPRPRPRPKNDPRP
- shrunken log2 fold change: 0.222

Sequence: RRIRARPPRLPRPRPRPKQNPRP
- shrunken log2 fold change: 0.481

Sequence: RRIRARPPRLPRPRPRPKRRPRP
- shrunken log2 fold change: 0.282

Sequence: RRIRARPPRLPRPRPRPKRWPRP
- shrunken log2 fold change: 0.586

Sequence: RRIRARPPRLPRPRPRPKVQPRP
- shrunken log2 fold change: 0.0571

Sequence: RRIRARPPRLPRPRPRPKVVPRP
- shrunken log2 fold change: -0.0348

Sequence: RRIRARPPRLPRPRPRPKWAPRP
- shrunken log2 fold change: 0.688

Sequence: RRIRARPPRLPRPRPRPKYFPRP
- shrunken log2 fold change: 0.0918

Sequence: RRIRARPPRLPRPRPRPKYIPRP
- shrunken log2 fold change: -0.536

Sequence: RRIRARPPRLPRPRPRPKYVPRP
- shrunken log2 fold change: -0.145

Sequence: RRIRARPPRLPRPRPRPLADPRP
- shrunken log2 fold change: 0.42

Sequence: RRIRARPPRLPRPRPRPLAKPRP
- shrunken log2 fold change: 0.835

Sequence: RRIRARPPRLPRPRPRPLCCPRP
- shrunken log2 fold change: 0.305

Sequence: RRIRARPPRLPRPRPRPLCSPRP
- shrunken log2 fold change: 0.197

Sequence: RRIRARPPRLPRPRPRPLDVPRP
- shrunken log2 fold change: -0.07

Sequence: RRIRARPPRLPRPRPRPLHQPRP
- shrunken log2 fold change: 0.147

Sequence: RRIRARPPRLPRPRPRPLHYPRP
- shrunken log2 fold change: -0.174

Sequence: RRIRARPPRLPRPRPRPLKHPRP
- shrunken log2 fold change: -0.0681

Sequence: RRIRARPPRLPRPRPRPLPPPRP
- shrunken log2 fold change: 0.805

Sequence: RRIRARPPRLPRPRPRPLQTPRP
- shrunken log2 fold change: 0.0966

Sequence: RRIRARPPRLPRPRPRPLRFPRP
- shrunken log2 fold change: 0.396

Sequence: RRIRARPPRLPRPRPRPLRIPRP
- shrunken log2 fold change: 2.9

Sequence: RRIRARPPRLPRPRPRPLTLPRP
- shrunken log2 fold change: 0.0472

Sequence: RRIRARPPRLPRPRPRPLVLPRP
- shrunken log2 fold change: 0.157

Sequence: RRIRARPPRLPRPRPRPLVSPRP
- shrunken log2 fold change: 0.653

Sequence: RRIRARPPRLPRPRPRPLWAPRP
- shrunken log2 fold change: 0.589

Sequence: RRIRARPPRLPRPRPRPLWEPRP
- shrunken log2 fold change: 0.745

Sequence: RRIRARPPRLPRPRPRPLWQPRP
- shrunken log2 fold change: 0.136

Sequence: RRIRARPPRLPRPRPRPLYHPRP
- shrunken log2 fold change: 0.149

Sequence: RRIRARPPRLPRPRPRPLYSPRP
- shrunken log2 fold change: -0.122

Sequence: RRIRARPPRLPRPRPRPMCNPRP
- shrunken log2 fold change: 0.186

Sequence: RRIRARPPRLPRPRPRPMCSPRP
- shrunken log2 fold change: 0.334

Sequence: RRIRARPPRLPRPRPRPMDKPRP
- shrunken log2 fold change: 0.0591

Sequence: RRIRARPPRLPRPRPRPMEAPRP
- shrunken log2 fold change: -0.047

Sequence: RRIRARPPRLPRPRPRPMHEPRP
- shrunken log2 fold change: 0.671

Sequence: RRIRARPPRLPRPRPRPMKFPRP
- shrunken log2 fold change: 0.0174

Sequence: RRIRARPPRLPRPRPRPMKTPRP
- shrunken log2 fold change: 0.0191

Sequence: RRIRARPPRLPRPRPRPMLQPRP
- shrunken log2 fold change: 0.454

Sequence: RRIRARPPRLPRPRPRPMMFPRP
- shrunken log2 fold change: 0.166

Sequence: RRIRARPPRLPRPRPRPMMHPRP
- shrunken log2 fold change: 0.184

Sequence: RRIRARPPRLPRPRPRPMNQPRP
- shrunken log2 fold change: -0.135

Sequence: RRIRARPPRLPRPRPRPMPEPRP
- shrunken log2 fold change: 0.18

Sequence: RRIRARPPRLPRPRPRPMPVPRP
- shrunken log2 fold change: 0.0463

Sequence: RRIRARPPRLPRPRPRPMQMPRP
- shrunken log2 fold change: 0.626

Sequence: RRIRARPPRLPRPRPRPMRCPRP
- shrunken log2 fold change: 0.162

Sequence: RRIRARPPRLPRPRPRPMRMPRP
- shrunken log2 fold change: 0.784

Sequence: RRIRARPPRLPRPRPRPMSHPRP
- shrunken log2 fold change: 0.148

Sequence: RRIRARPPRLPRPRPRPMVLPRP
- shrunken log2 fold change: -0.118

Sequence: RRIRARPPRLPRPRPRPMWTPRP
- shrunken log2 fold change: 0.0207

Sequence: RRIRARPPRLPRPRPRPNAQPRP
- shrunken log2 fold change: 0.158

Sequence: RRIRARPPRLPRPRPRPNAYPRP
- shrunken log2 fold change: 0.0893

Sequence: RRIRARPPRLPRPRPRPNCSPRP
- shrunken log2 fold change: 0.179

Sequence: RRIRARPPRLPRPRPRPNDCPRP
- shrunken log2 fold change: 0.0748

Sequence: RRIRARPPRLPRPRPRPNDDPRP
- shrunken log2 fold change: 0.54

Sequence: RRIRARPPRLPRPRPRPNDHPRP
- shrunken log2 fold change: -0.0473

Sequence: RRIRARPPRLPRPRPRPNEGPRP
- shrunken log2 fold change: -0.175

Sequence: RRIRARPPRLPRPRPRPNFGPRP
- shrunken log2 fold change: 0.324

Sequence: RRIRARPPRLPRPRPRPNFNPRP
- shrunken log2 fold change: -0.0686

Sequence: RRIRARPPRLPRPRPRPNGMPRP
- shrunken log2 fold change: -0.0336

Sequence: RRIRARPPRLPRPRPRPNHEPRP
- shrunken log2 fold change: 0.021

Sequence: RRIRARPPRLPRPRPRPNKMPRP
- shrunken log2 fold change: -0.177

Sequence: RRIRARPPRLPRPRPRPNLDPRP
- shrunken log2 fold change: -0.152

Sequence: RRIRARPPRLPRPRPRPNLEPRP
- shrunken log2 fold change: 0.0621

Sequence: RRIRARPPRLPRPRPRPNLTPRP
- shrunken log2 fold change: 0.287

Sequence: RRIRARPPRLPRPRPRPNMWPRP
- shrunken log2 fold change: 0.188

Sequence: RRIRARPPRLPRPRPRPNNSPRP
- shrunken log2 fold change: -0.483

Sequence: RRIRARPPRLPRPRPRPNPWPRP
- shrunken log2 fold change: 0.222

Sequence: RRIRARPPRLPRPRPRPNQHPRP
- shrunken log2 fold change: -0.124

Sequence: RRIRARPPRLPRPRPRPNQLPRP
- shrunken log2 fold change: -0.0527

Sequence: RRIRARPPRLPRPRPRPNQRPRP
- shrunken log2 fold change: 0.532

Sequence: RRIRARPPRLPRPRPRPNRNPRP
- shrunken log2 fold change: -0.266

Sequence: RRIRARPPRLPRPRPRPNSGPRP
- shrunken log2 fold change: -0.0211

Sequence: RRIRARPPRLPRPRPRPNTHPRP
- shrunken log2 fold change: -0.309

Sequence: RRIRARPPRLPRPRPRPNVAPRP
- shrunken log2 fold change: 0.477

Sequence: RRIRARPPRLPRPRPRPNVHPRP
- shrunken log2 fold change: 0.0927

Sequence: RRIRARPPRLPRPRPRPNYNPRP
- shrunken log2 fold change: -0.556

Sequence: RRIRARPPRLPRPRPRPPCHPRP
- shrunken log2 fold change: 0.219

Sequence: RRIRARPPRLPRPRPRPPDNPRP
- shrunken log2 fold change: 0.576

Sequence: RRIRARPPRLPRPRPRPPDSPRP
- shrunken log2 fold change: 0.212

Sequence: RRIRARPPRLPRPRPRPPEQPRP
- shrunken log2 fold change: 0.941

Sequence: RRIRARPPRLPRPRPRPPEWPRP
- shrunken log2 fold change: 0.734

Sequence: RRIRARPPRLPRPRPRPPGMPRP
- shrunken log2 fold change: 0.471

Sequence: RRIRARPPRLPRPRPRPPIDPRP
- shrunken log2 fold change: 0.647

Sequence: RRIRARPPRLPRPRPRPPLHPRP
- shrunken log2 fold change: 0.467

Sequence: RRIRARPPRLPRPRPRPPLKPRP
- shrunken log2 fold change: 0.33

Sequence: RRIRARPPRLPRPRPRPPLPPRP
- shrunken log2 fold change: 0.762

Sequence: RRIRARPPRLPRPRPRPPMWPRP
- shrunken log2 fold change: 0.805

Sequence: RRIRARPPRLPRPRPRPPNPPRP
- shrunken log2 fold change: 0.662

Sequence: RRIRARPPRLPRPRPRPPPVPRP
- shrunken log2 fold change: 1.04

Sequence: RRIRARPPRLPRPRPRPPPYPRP
- shrunken log2 fold change: 0.698

Sequence: RRIRARPPRLPRPRPRPPQAPRP
- shrunken log2 fold change: 1.03

Sequence: RRIRARPPRLPRPRPRPPREPRP
- shrunken log2 fold change: 1.01

Sequence: RRIRARPPRLPRPRPRPPRWPRP
- shrunken log2 fold change: 0.794

Sequence: RRIRARPPRLPRPRPRPPTAPRP
- shrunken log2 fold change: 0.744

Sequence: RRIRARPPRLPRPRPRPPTCPRP
- shrunken log2 fold change: 0.559

Sequence: RRIRARPPRLPRPRPRPPVFPRP
- shrunken log2 fold change: 0.416

Sequence: RRIRARPPRLPRPRPRPPYFPRP
- shrunken log2 fold change: 0.314

Sequence: RRIRARPPRLPRPRPRPPYGPRP
- shrunken log2 fold change: 0.0793

Sequence: RRIRARPPRLPRPRPRPPYKPRP
- shrunken log2 fold change: 0.0849

Sequence: RRIRARPPRLPRPRPRPPYVPRP
- shrunken log2 fold change: -0.131

Sequence: RRIRARPPRLPRPRPRPQAAPRP
- shrunken log2 fold change: 1.14

Sequence: RRIRARPPRLPRPRPRPQDVPRP
- shrunken log2 fold change: -0.136

Sequence: RRIRARPPRLPRPRPRPQFLPRP
- shrunken log2 fold change: -0.265

Sequence: RRIRARPPRLPRPRPRPQGIPRP
- shrunken log2 fold change: 0.0477

Sequence: RRIRARPPRLPRPRPRPQGLPRP
- shrunken log2 fold change: 0.208

Sequence: RRIRARPPRLPRPRPRPQIEPRP
- shrunken log2 fold change: 0.234
